Experimental data from the Human Domainome abundance scans (Beltran et al. 2025).
± gives the uncertainty stated by the source.

B1: Connector enhancer of kinase suppressor of ras 2, residues 9 to 71; numbered along this chain, Q8WXI2 (parent)
chain: SKWSPSQVVDWMKGLDDCLQQYIKNFEREKISGDQLLRITHQELEDLGVSRIGHQELILEAVD
B2: Homeobox protein cut-like 1, residues 941 to 1008; numbered along this chain, P39880 (parent)
chain: QEVDTIELTRQVKEKLAKNGICQRIFGEKVLGLSQGSVSDMLSRPKPWSKLTQKGREPFIRMQLWLNG

Variants of: B1
Assay: abundance fitness (aPCA) (normalised: wild type 0, dead -1); higher = more abundant; growth selection in yeast, the domain comes from the species named
Conditions: Homo sapiens
Work on Q55P yielded an abundance fitness of -0.654 ± 0.042.
With Q55Y the abundance fitness was -1.02 ± 0.16.
With Q55N the abundance fitness was -1.01 ± 0.091.
Variant Q55V has an abundance fitness of -0.319 ± 0.029.
Q55S gave an abundance fitness of -0.57 ± 0.034.
Variant Q55L has an abundance fitness of -0.948 ± 0.041.
For Q55I, the abundance fitness was -0.281 ± 0.042.
Work on Q55E yielded an abundance fitness of -0.954 ± 0.097.
Q55H showed an abundance fitness of -0.861 ± 0.052.
In the case of Q55T, the abundance fitness is reported as -0.598 ± 0.036.
In the case of Q55R, the abundance fitness is reported as 0.061 ± 0.024.
Q55C showed an abundance fitness of -0.403 ± 0.043.
For Q55W, the abundance fitness was -1.14 ± 0.06.
With Q55D the abundance fitness was -0.978 ± 0.093.
Q55A showed an abundance fitness of -0.296 ± 0.03.
With Q55K the abundance fitness was -0.051 ± 0.034.
V62K showed an abundance fitness of -0.392 ± 0.12.
For V62C, the abundance fitness was -0.411 ± 0.047.
V62N showed an abundance fitness of -0.815 ± 0.057.
With V62Y the abundance fitness was -1.02 ± 0.11.
For V62T, the abundance fitness was -0.58 ± 0.047.
Work on V62Q yielded an abundance fitness of -0.789 ± 0.089.
Variant V62A has an abundance fitness of -0.335 ± 0.04.
In the case of V62E, the abundance fitness is reported as -0.63 ± 0.11.
In the case of V62M, the abundance fitness is reported as -0.552 ± 0.043.
Variant V62S has an abundance fitness of -0.741 ± 0.048.
Work on V62G yielded an abundance fitness of -0.802 ± 0.046.
With V62P the abundance fitness was -0.779 ± 0.077.
Work on V62D yielded an abundance fitness of -0.822 ± 0.088.
With V62R the abundance fitness was -0.061 ± 0.028.
V62W gave an abundance fitness of -0.909 ± 0.17.
Variant V62I has an abundance fitness of -0.047 ± 0.044.
With V62F the abundance fitness was -0.921 ± 0.084.
With V62L the abundance fitness was -0.258 ± 0.037.
V62H showed an abundance fitness of -1.04 ± 0.11.
With E56W the abundance fitness was -0.362 ± 0.041.
In the case of E56H, the abundance fitness is reported as -0.121 ± 0.051.
Variant E56M has an abundance fitness of -0.157 ± 0.042.
In the case of E56N, the abundance fitness is reported as -0.046 ± 0.057.
In the case of E56C, the abundance fitness is reported as -0.176 ± 0.043.
For E56G, the abundance fitness was -0.307 ± 0.031.
Work on E56V yielded an abundance fitness of -0.161 ± 0.034.
Variant E56L has an abundance fitness of -0.158 ± 0.029.
E56K gave an abundance fitness of 0.041 ± 0.037.
Variant E56I has an abundance fitness of -0.102 ± 0.099.
E56T showed an abundance fitness of -0.077 ± 0.033.
Variant E56A has an abundance fitness of -0.138 ± 0.042.
Work on E56D yielded an abundance fitness of -0.011 ± 0.045.
In the case of E56S, the abundance fitness is reported as -0.17 ± 0.032.
E56Y showed an abundance fitness of -0.333 ± 0.062.
In the case of E56R, the abundance fitness is reported as -0.009 ± 0.027.
In the case of E56P, the abundance fitness is reported as -0.728 ± 0.063.
R51W showed an abundance fitness of -0.115 ± 0.036.
R51N showed an abundance fitness of 0.063 ± 0.046.
Work on R51D yielded an abundance fitness of 0.081 ± 0.043.
R51M gave an abundance fitness of -0.042 ± 0.039.
For R51H, the abundance fitness was 0.018 ± 0.039.
In the case of R51S, the abundance fitness is reported as 0.088 ± 0.027.
Work on R51L yielded an abundance fitness of -0.015 ± 0.026.
Work on R51A yielded an abundance fitness of 0.031 ± 0.026.
R51I gave an abundance fitness of 0.03 ± 0.03.
Variant R51Q has an abundance fitness of 0.071 ± 0.035.
R51E gave an abundance fitness of 0.088 ± 0.044.
R51C showed an abundance fitness of 0.082 ± 0.034.
R51V gave an abundance fitness of 0.061 ± 0.029.
With R51T the abundance fitness was 0.063 ± 0.027.
R51G gave an abundance fitness of -0.083 ± 0.026.
For R51P, the abundance fitness was -0.021 ± 0.036.
Work on R51F yielded an abundance fitness of 0.006 ± 0.033.
E60Y showed an abundance fitness of -0.514 ± 0.047.
With E60V the abundance fitness was -0.439 ± 0.029.
Variant E60M has an abundance fitness of -0.226 ± 0.032.
Variant E60N has an abundance fitness of -0.012 ± 0.04.
Work on E60T yielded an abundance fitness of -0.057 ± 0.03.
With E60I the abundance fitness was -0.531 ± 0.056.
Variant E60F has an abundance fitness of -0.615 ± 0.058.
Work on E60W yielded an abundance fitness of -0.664 ± 0.04.
With E60R the abundance fitness was -0.072 ± 0.025.
In the case of E60D, the abundance fitness is reported as -0.012 ± 0.047.
E60G gave an abundance fitness of -0.096 ± 0.031.
E60H gave an abundance fitness of -0.111 ± 0.038.
E60P gave an abundance fitness of -0.905 ± 0.073.
Variant E60Q has an abundance fitness of 0.006 ± 0.046.
E60C gave an abundance fitness of -0.187 ± 0.037.
Variant E60S has an abundance fitness of -0.004 ± 0.026.
Variant D46W has an abundance fitness of -0.192 ± 0.034.
With D46T the abundance fitness was -0.041 ± 0.031.
In the case of D46Y, the abundance fitness is reported as -0.194 ± 0.04.
In the case of D46V, the abundance fitness is reported as -0.11 ± 0.032.
Work on D46P yielded an abundance fitness of -0.813 ± 0.076.
Variant D46Q has an abundance fitness of -0.032 ± 0.048.
In the case of D46R, the abundance fitness is reported as 0.027 ± 0.023.
Variant D46S has an abundance fitness of -0.037 ± 0.024.
Work on I58Q yielded an abundance fitness of -0.696 ± 0.092.
I58S showed an abundance fitness of -0.714 ± 0.065.
I58F gave an abundance fitness of -0.033 ± 0.085.
For I58E, the abundance fitness was -0.584 ± 0.078.
In the case of I58K, the abundance fitness is reported as -0.727 ± 0.12.
Work on I58P yielded an abundance fitness of -0.671 ± 0.085.
Variant I58A has an abundance fitness of -0.799 ± 0.099.
I58L gave an abundance fitness of -0.096 ± 0.039.
I58N showed an abundance fitness of -0.851 ± 0.12.
Work on I58V yielded an abundance fitness of -0.374 ± 0.063.
In the case of I58R, the abundance fitness is reported as -0.811 ± 0.076.
For I58W, the abundance fitness was -0.734 ± 0.18.
For I58Y, the abundance fitness was -1.35 ± 0.46.
I58T showed an abundance fitness of -0.688 ± 0.11.
With I58G the abundance fitness was -0.945 ± 0.24.
Work on I58H yielded an abundance fitness of -0.268 ± 0.29.
For L57Y, the abundance fitness was -0.53 ± 0.051.
Work on L57Q yielded an abundance fitness of -0.213 ± 0.043.
L57C gave an abundance fitness of -0.394 ± 0.051.
Variant L57F has an abundance fitness of -0.553 ± 0.036.
Variant L57I has an abundance fitness of -0.242 ± 0.048.
L57T gave an abundance fitness of -0.448 ± 0.032.
Work on L57E yielded an abundance fitness of -0.446 ± 0.034.
In the case of L57D, the abundance fitness is reported as -0.677 ± 0.064.
For L57V, the abundance fitness was -0.439 ± 0.033.
L57S gave an abundance fitness of -0.298 ± 0.033.
For L57A, the abundance fitness was -0.105 ± 0.026.
L57R gave an abundance fitness of -0.202 ± 0.027.
Work on L57G yielded an abundance fitness of -0.635 ± 0.043.
L57N gave an abundance fitness of -0.533 ± 0.049.
L57K gave an abundance fitness of 0.021 ± 0.049.
With L57P the abundance fitness was -0.831 ± 0.057.
Variant L57H has an abundance fitness of -0.482 ± 0.057.
L57M showed an abundance fitness of 0.035 ± 0.04.
With L57W the abundance fitness was -0.987 ± 0.066.

Variants of: B2
Assay: as above
Conditions: Homo sapiens
QEVDTIELTRQVKENLAKNGICQRIFGEKVLGLSQGSVSDMLSRPKPWSKLTQKGREPFIRMQLWLNG showed an abundance fitness of -0.012 ± 0.11.
For QEVDTIELTRQVKEKLAKNGECQRIFGEKVLGLSQGSVSDMLSRPKPWSKLTQKGREPFIRMQLWLNG, the abundance fitness was -0.22 ± 0.09.
With QEVDTIELTRQVKEKLAKNGICQRIFGEKVLGLSQGSVSDMLSRPKPWSKLTQKGREPMIRMQLWLNG the abundance fitness was -0.568 ± 0.071.
In the case of QEVDTIELTRQVKEKLAKNGICQRIFGEKVLGLSQGSVSDMLSRPKPWSKLTLKGREPFIRMQLWLNG, the abundance fitness is reported as -0.082 ± 0.062.
In the case of QEVDSIELTRQVKEKLAKNGICQRIFGEKVLGLSQGSVSDMLSRPKPWSKLTQKGREPFIRMQLWLNG, the abundance fitness is reported as -0.177 ± 0.056.
QEVDTIELTRQVKEKLAKNGICQRIFGEKVLGLSQGSVSDMLSRPKPWSKLTQKKREPFIRMQLWLNG gave an abundance fitness of -0.163 ± 0.078.
Variant QEVDTIELTRQVKEKLAKNCICQRIFGEKVLGLSQGSVSDMLSRPKPWSKLTQKGREPFIRMQLWLNG has an abundance fitness of -0.317 ± 0.082.
For QEVDTIELTRQVKEKLAKNGICQRIFGEKVLGLSQGSVSDMTSRPKPWSKLTQKGREPFIRMQLWLNG, the abundance fitness was -0.424 ± 0.069.
With QEVDTIELTRQVKEKLAYNGICQRIFGEKVLGLSQGSVSDMLSRPKPWSKLTQKGREPFIRMQLWLNG the abundance fitness was -0.527 ± 0.15.
For QEVDTTELTRQVKEKLAKNGICQRIFGEKVLGLSQGSVSDMLSRPKPWSKLTQKGREPFIRMQLWLNG, the abundance fitness was -0.029 ± 0.062.
With QEVDTIELTRQVKEKLAKNGICQRIFGEKVLGLSQGSVSDMLSRPCPWSKLTQKGREPFIRMQLWLNG the abundance fitness was -0.369 ± 0.13.
With QEVDTIELTRQVKEKLAKNGICQRIFGEKVLGLSQGSVSDMLSRPKPWSKWTQKGREPFIRMQLWLNG the abundance fitness was -0.08 ± 0.05.
In the case of QEVDTIELTRQVKEKLAKNGICQRIFGEKVLGLSQGSVSDMLSRPKPWSSLTQKGREPFIRMQLWLNG, the abundance fitness is reported as -0.04 ± 0.055.
In the case of QEVDTIELTRQVKEKLAKNGICQRIFGEKVLGLSQGSVSDMLSRPKPWSKLTQKGREPFKRMQLWLNG, the abundance fitness is reported as 0.013 ± 0.081.
Work on QEVDTIELTRQVKEKLAKNGICQRIFGEKVLGLSQGSVSDMLSRPKPWSKLTQKGRFPFIRMQLWLNG yielded an abundance fitness of -0.294 ± 0.12.
